The values below come from US20260151519A1 (AKTIS ONCOLOGY, published 2026).

Primed or numbered codes have the meaning given here. Where no end group is shown, it is not given here. [ ]: non-standard residue; d: D form. The star is where a group is joined. Biotin = O=C1N[C@H]2[C@H](CS[C@H]2CCCCC(=O)*)N1; Lys(Me3) = C[N+](C)(C)CCCC[C@H](N)C(=O)O; PEG4′ = not defined here

Test [1] deals with T1, TRPV5 (human, UniProt Q9NQA5 1-729).
T1 construct: whole, on cells
Briefly: cell microarray on HEK293 cells. On the procedure:
(§1) Initially, two pools of compounds were tested. […] To perform this assay, HEK293 cells were plated on a dish and localized spots of cells were transiently over-expressed with a single cDNA encoding for GFP and one of the 6,416 targets. Included in this library were multiple clones for the Nectin family members, including plasma membrane, non-tethered secreted, and tethered secreted forms of Nectin-1, 2, 3, and 4. Secreted protein targets were tethered to the plasma membrane to aid in detection. The molecule pools were incubated on the fixed, over-expressing cell microarrays (n=2 per protein), and binding was visualized using Alexa Fluor 647 streptavidin fluorescence.

The target in test [2] is T2, IGF1 (human, UniProt P05019 49-118).
T2 construct: whole, on cells; Secreted targets were tethered to the plasma membrane
As to the kind of experiment: cell microarray on HEK293 cells. The method, then: as §1

The target of test [3] is T3, MFSD2B (human, UniProt A6NFX1 1-504).
T3 construct: whole, on cells
T3 sequence (looked up): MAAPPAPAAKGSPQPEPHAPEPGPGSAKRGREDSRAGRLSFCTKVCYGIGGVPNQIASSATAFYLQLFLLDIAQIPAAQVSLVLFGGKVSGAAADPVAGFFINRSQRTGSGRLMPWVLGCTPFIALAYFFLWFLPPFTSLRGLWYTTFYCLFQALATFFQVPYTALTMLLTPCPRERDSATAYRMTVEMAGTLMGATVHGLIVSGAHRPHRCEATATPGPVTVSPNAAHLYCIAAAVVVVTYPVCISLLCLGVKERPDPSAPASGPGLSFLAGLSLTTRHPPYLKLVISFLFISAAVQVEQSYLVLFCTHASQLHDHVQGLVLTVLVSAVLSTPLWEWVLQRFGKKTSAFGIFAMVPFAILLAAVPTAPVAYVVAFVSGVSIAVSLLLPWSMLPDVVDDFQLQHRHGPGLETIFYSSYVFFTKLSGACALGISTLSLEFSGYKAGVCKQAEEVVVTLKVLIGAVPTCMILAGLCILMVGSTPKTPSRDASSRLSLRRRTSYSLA
Briefly: cell microarray on HEK293 cells. The method, then:
as §1

Test [4] concerns the target T4, Human Nectin-4 expressed on cells (human, UniProt Q96NY8 32-510).
T4 construct: Endogenous on HT-1376 cells; also called endogenous Nectin-4 on HT-1376 cells; cell surface Nectin-4
T4 sequence: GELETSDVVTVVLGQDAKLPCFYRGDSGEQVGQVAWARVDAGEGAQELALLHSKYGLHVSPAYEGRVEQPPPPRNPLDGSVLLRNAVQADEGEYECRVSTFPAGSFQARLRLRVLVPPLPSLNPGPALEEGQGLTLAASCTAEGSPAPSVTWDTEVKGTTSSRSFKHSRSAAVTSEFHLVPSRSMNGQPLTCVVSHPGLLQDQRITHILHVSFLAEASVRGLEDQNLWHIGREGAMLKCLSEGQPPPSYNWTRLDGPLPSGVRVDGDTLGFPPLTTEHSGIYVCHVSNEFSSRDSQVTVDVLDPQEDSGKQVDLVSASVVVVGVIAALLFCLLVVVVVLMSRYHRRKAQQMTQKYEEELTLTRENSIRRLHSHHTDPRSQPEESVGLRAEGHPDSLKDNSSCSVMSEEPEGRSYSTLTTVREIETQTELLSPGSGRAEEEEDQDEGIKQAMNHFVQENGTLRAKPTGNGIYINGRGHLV
Briefly: DELFIA competition against 10 nM C307, HT-1376 cells. The method, then: (§2) A competition binding assay was utilized to determine the Kᵢ for miniproteins bound to Nectin-4 expressed on the surface of cancer cells. […] Miniprotein incubations occurred for 90 min to reach binding equilibrium. […] After miniprotein incubations, the wells were washed to remove unbound ligand and treated according to manufacturer instructions for a DELFIA® (dissociation-enhanced lanthanide fluorescent immunoassay, Revvity Health Sciences). In brief, washed wells were incubated with 15 μL of 2 M HCl for 2 h at 37° C., after which 17 μL of 2 M NaOH and 30 μL of DELFIA® enhancement solution were added to each well and incubated for an additional 30 min. The remaining Eu reacted with the DELFIA® enhancer solution to generate fluorescence measured on the Envision instrument. Relative fluorescence units (RFUs) were measured as a function of test article concentration in order to calculate an IC50. The Ki can then be calculated using the Cheng-Prusoff equation for converting a measured IC50 to Ki: […]

For test [5], the target named is T4, Human Nectin-4 expressed on cells. As to the kind of experiment: flow cytometry dose response, biotinylated C253 detected with Strep-PE, Delta MFI = C253 MFI minus vehicle MFI, HT-1376-P cells. On the procedure:
Fluorescent imaging for Nectin-4 binding was conducted using assays as described in Example 3. Briefly, Nectin-4 knockout HT-1376 cells were generated via CRISPR/Cas9 mediated gene deletion followed by single cell cloning. […] Flow cytometry was performed to measure on-target binding to cell surface Nectin-4. […]

For test [6] the target is unchanged. Briefly: competition binding assay (DELFIA, fluorescence at 615 nm) on HT-1376 cells: 12 concentrations of C253 against 10 nM Eu-labelled C307 as the displaced tracer. On the procedure: as §2

T1 sequence (Q9NQA5 whole entry): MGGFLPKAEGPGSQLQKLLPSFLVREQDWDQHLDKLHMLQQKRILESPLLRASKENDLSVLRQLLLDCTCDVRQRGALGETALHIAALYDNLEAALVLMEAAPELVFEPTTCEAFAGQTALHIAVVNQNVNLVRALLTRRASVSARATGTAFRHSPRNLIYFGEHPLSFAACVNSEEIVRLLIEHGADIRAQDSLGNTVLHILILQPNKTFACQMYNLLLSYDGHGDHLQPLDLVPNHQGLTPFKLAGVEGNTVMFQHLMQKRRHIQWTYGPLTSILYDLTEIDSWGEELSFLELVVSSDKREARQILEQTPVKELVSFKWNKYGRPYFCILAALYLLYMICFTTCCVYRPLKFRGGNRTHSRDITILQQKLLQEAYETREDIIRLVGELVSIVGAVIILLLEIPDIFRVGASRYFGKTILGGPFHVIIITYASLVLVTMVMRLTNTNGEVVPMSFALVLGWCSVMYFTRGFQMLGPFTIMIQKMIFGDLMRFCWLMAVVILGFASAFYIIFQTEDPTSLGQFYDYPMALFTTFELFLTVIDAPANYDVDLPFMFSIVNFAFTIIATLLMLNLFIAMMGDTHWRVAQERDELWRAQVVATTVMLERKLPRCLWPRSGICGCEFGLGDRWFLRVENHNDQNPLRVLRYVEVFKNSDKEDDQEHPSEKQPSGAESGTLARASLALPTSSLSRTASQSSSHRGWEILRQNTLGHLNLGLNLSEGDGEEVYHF
T2 sequence (P05019 49-118): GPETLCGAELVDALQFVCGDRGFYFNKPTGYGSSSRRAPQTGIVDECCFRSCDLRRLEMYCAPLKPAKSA

B1: C208 (designed binder)
chain: {Biotin-PEG4′}-CDYDEQFFTALKRLRGADICEYIQASFQYLPGECIEEILDNLGCS
modifications: cysteine pairing not given here
With B1, the binding result in test [1], in test [2] and in test [3] was “no binding (tested: 2 µg/mL)” throughout.

B2: C190 (designed binder)
chain: {Biotin-PEG4′}-CDYDEQFFTALKRLRGGDICEYIQASFQYLPGLCIEEILDNLGCS
modifications: cysteine pairing not given here
Consider B2, for which the binding result in test [1], in test [2] and in test [3] was “no binding (tested: 2 µg/mL)” in each case.

B3: C247 (designed binder)
chain: {Biotin-PEG4′}-CDYDEQFFTALARLRGADICEYIQASFQYLPGECIEEILDNLGCS
modifications: cysteine pairing not given here
As for B3, the binding result in test [1], in test [2] and in test [3] was “no binding (tested: 2 µg/mL)” in each case.

B4: C197 (designed binder)
chain: {Biotin-PEG4′}-CEYDEQFFTALKRLRGDDICDYIQASFQYLPGLCIEEILDNLGCS
modifications: cysteine pairing not given here
B4: the binding result in test [1], in test [2] and in test [3] was “no binding (tested: 2 µg/mL)” each time.

B5: C253 (designed binder)
chain: {Biotin-PEG4′}-CEYDEEFFTALARLRGGDICQYIQA[Lys(Me3)]FQYLPALCIEEILDNLGCS
modifications: cysteine pairing not given here
The molecule B5 gave an inhibition constant Ki in test [4] of 0.82 nM. Moreover, the half-maximal effective concentration (EC50 (read off the curve)) in test [5] was approximately 0.8 nM. Further, the “IC50 (read off the curve)” value in test [6] is approximately 2 nM. Besides, the binding result in test [1], in test [2] and in test [3] was “no binding (tested: 2 µg/mL)” throughout.
